The record followed here is US20230106247A1 (L AND L BIO CO LTD NINGBO CHINA, published 2023).

Assay [1] addresses T1, human Sirpα-V1-his (human, UniProt P78324 31-373).
T1 construct: range 31-373; Bought (Sino Biological 11612-H08H) or expressed in-house; also called hSirpα-V1; hSirpα-V1-his
Kind of assay: ELISA. The method, then:
(§1) The self-expressed human PD-1, Sirpα and the like antigens of the present disclosure were diluted with a PBS buffer at pH7.4 to a concentration of 2 μg/mL according to different assays, and then added into a 96-well ELISA plate (Corning, CLS3590-100EA) at a volume of 50 μL/well, and placed in an incubator at 37° C. for 2 hours. After the liquid was discarded, the wells were added with a blocking solution of 5% skimmed milk (Sangon Biotech (Shanghai) Co., Ltd., A600669-0250) diluted with PBS at 200 μL/well, and incubated in an incubator at 37° C. for 3 hours, or placed overnight at 4° C. (for 16-18 hours) for blocking. The blocking solution was discarded, and the plate was washed with a PBST buffer (pH7.4 PBS containing 0.05% tween-20) for 5 times, then added with 50 μL/well of 5-fold serial dilution of the antibody to be tested in 1% BSA, and incubated at 37° C. for 1 hour. […] The plated was washed with PBST for 5 times, then added with 50 μL/well of TMB chromogenic substrate (KPL, 52-00-03), incubated at room temperature for 5-10 min, added with 50 μL/well of 1 M H₂SO₄ to stop the reaction, and read by a […] Go microplate reader (ThermoFisher, 51119200) for the absorbance value at 450 nm, and then EC₅₀ was calculated according to the OD value.
(§2) The aforementioned bispecific antibodies were cloned, expressed and purified according to the cloning, expression and purification methods of Example 1 of the present disclosure.

The target of assay [2] is T2, human PD-1 (recombinant, hFc/his tag) (human, UniProt Q15116 21-167).
T2 construct: not shown: hFc or his tag
Kind of assay: ELISA. The method, then: as §1, §2

The target in assay [3] is T2, human PD-1 (recombinant, hFc/his tag). Kind of assay: blocking ELISA, competitor PD-L1. The method, then: (§3) The antigens PD-1 and Sirpα expressed according to the method of Example 1 were diluted with a PBS buffer at pH7.4 to a concentration of 2 μg/mL, added into a 96-well ELISA plate (Corning, CLS3590-100EA) at a volume of 50 μL/well, and incubated at 37° C. for 2 hours. After the liquid was discarded, the wells were added with a blocking solution of 5% skimmed milk (Sangon Biotech (Shanghai) Co., Ltd., A600669-0250) formulated with PBS at 200 μL/well, and incubated at 37° C. for 3 hours for blocking. […] The plate was washed with PBST for 5 times, added with 50 μL/well of HRP-labeled secondary antibody (GenScript Biotechnology Co., Ltd., M00091) diluted at 1:1000, and incubated at 37° C. for 1 hour. The plated was washed with PBST for 5 times, then added with 50 μl/well of TMB chromogenic substrate (KPL, 52-00-03), incubated at room temperature for 5-10 min, added with 50 μl/well of 1 M H₂SO₄ to stop the reaction, and read by a […] Go microplate reader (ThermoFisher, 51119200) for the absorbance value at 450 nm, and then IC₅₀ was calculated according to the OD value.
(ELISA stands for enzyme-linked immunosorbent assay.)

Assay [4] has as its target T1, human Sirpα-V1-his. Kind of assay: blocking ELISA, competitor CD47-hFc. As for the experimental part: as §3
The next assay has as its target T3, human Sirpα-V1-hFc (human, UniProt P78324 31-373).
T3 construct: range 31-373; also called hSirpα (dimer); hSirpα-V1-hFc (dimer); not shown: human IgG1 Fc region at the C-terminus
Kind of assay: blocking ELISA, competitor CD47-his. As for the experimental part:
as §3

B1: bispecific antibody LB502 (bispecific antibody, human IgG4 S228P, kappa)
light: EIVLTQSPATLSLSPGERATLSCRASKGVSTSGYSYLHWYQQKPGQAPRLLIYLASYLESGVPARFSGSGSGTDFTLTISSLEPEDFAVYYCQHSRDLPLTFGGGTKVEIKRTVAAPSVFIFPPSDEQLKSGTASVVCLLNNFYPREAKVQWKVDNALQSGNSQESVTEQDSKDSTYSLSSTLTLSKADYEKHKVYACEVTHQGLSSPVTKSFNRGEC
heavy: not shown
notes: mab14-h16 scFv at the N-terminus of the Pem heavy chain
Consider B1, for which the EC50 is 0.066 nM with human Sirpα-V1-his [1] and 0.074 nM in assay [2]. The IC50 amounted to 2 nM in assay [3], 5.37 nM in the assay with human Sirpα-V1-his [4] and 3.78 nM with human Sirpα-V1-hFc.

B2: bispecific antibody LB504 (bispecific antibody, human IgG4 S228P, kappa)
light: EIVLTQSPATLSLSPGERATLSCRASKGVSTSGYSYLHWYQQKPGQAPRLLIYLASYLESGVPARFSGSGSGTDFTLTISSLEPEDFAVYYCQHSRDLPLTFGGGTKVEIKRTVAAPSVFIFPPSDEQLKSGTASVVCLLNNFYPREAKVQWKVDNALQSGNSQESVTEQDSKDSTYSLSSTLTLSKADYEKHKVYACEVTHQGLSSPVTKSFNRGEC
heavy: not shown
notes: mab14-h16 scFv at the C-terminus of the Pem heavy chain
With B2, the EC50 with human Sirpα-V1-his [1] came to 0.055 nM; in assay [2], 0.061 nM. For the same molecule, the figures for the IC50 (in assay [3]; in the assay with human Sirpα-V1-his [4]; with human Sirpα-V1-hFc) were 1.09 nM, 6.63 nM and 4.62 nM, respectively.

B3: bispecific antibody LB501 (bispecific antibody, human IgG4 S228P, kappa)
light: DIQMTQSPSSLSASVGDRVTITCRASQDIRNYLNWYQQKPGKAPKLLIYFTSTLHSGVPSRFSGSGSGTDFTLTISSLQPEDFATYYCQQGNTLPWTFGGGTKVEIKGGGGSGGGGSGGGGSQVQLVQSGAEVKKPGASVKVSCKASGYNFNIYWINWVRQAPGQGLEWIGNIYPSSISTNYNEKFKTRATLTVDKSTSTVYMELSSLRSEDTAVYYCARSEGTYYGGRYEGDWFGYWGQGTLVTVSSGGGGSGGGGSGGGGSEIVLTQSPATLSLSPGERATLSCRASKGVSTSGYSYLHWYQQKPGQAPRLLIYLASYLESGVPARFSGSGSGTDFTLTISSLEPEDFAVYYCQHSRDLPLTFGGGTKVEIKRTVAAPSVFIFPPSDEQLKSGTASVVCLLNNFYPREAKVQWKVDNALQSGNSQESVTEQDSKDSTYSLSSTLTLSKADYEKHKVYACEVTHQGLSSPVTKSFNRGEC
heavy: not shown
notes: mab14-h16 scFv at the N-terminus of the Pem light chain
With B3, the values for the EC50 (in the assay with human Sirpα-V1-his [1]; in assay [2]) were 0.059 nM and 0.075 nM, respectively. Also, the IC50 was determined as 1.3 nM in assay [3], 5.42 nM with human Sirpα-V1-his [4] and 2.55 nM in the assay with human Sirpα-V1-hFc.

B4: bispecific antibody LB503 (bispecific antibody, human IgG4 S228P, kappa)
light: EIVLTQSPATLSLSPGERATLSCRASKGVSTSGYSYLHWYQQKPGQAPRLLIYLASYLESGVPARFSGSGSGTDFTLTISSLEPEDFAVYYCQHSRDLPLTFGGGTKVEIKRTVAAPSVFIFPPSDEQLKSGTASVVCLLNNFYPREAKVQWKVDNALQSGNSQESVTEQDSKDSTYSLSSTLTLSKADYEKHKVYACEVTHQGLSSPVTKSFNRGECAGGGGSGGGGSGGGGSQVQLVQSGAEVKKPGASVKVSCKASGYNFNIYWINWVRQAPGQGLEWIGNIYPSSISTNYNEKFKTRATLTVDKSTSTVYMELSSLRSEDTAVYYCARSEGTYYGGRYEGDWFGYWGQGTLVTVSSGGGGSGGGGSGGGGSDIQMTQSPSSLSASVGDRVTITCRASQDIRNYLNWYQQKPGKAPKLLIYFTSTLHSGVPSRFSGSGSGTDFTLTISSLQPEDFATYYCQQGNTLPWTFGGGTKVEIK
heavy: not shown
notes: mab14-h16 scFv at the C-terminus of the Pem light chain
For the molecule B4, the EC50 in the assay with human Sirpα-V1-his [1] came to 0.075 nM; in assay [2] it was 0.063 nM. The IC50 turned out to be 1.45 nM in assay [3], 7.63 nM with human Sirpα-V1-his [4] and 4.8 nM with human Sirpα-V1-hFc.

One may read the EC50 as the concentration giving half of the maximal effect. The term IC50 denotes the point on the concentration scale where inhibition reaches its midpoint.
